According to the supplement of paper PMC5998384:

Key:
HeLa Kyoto [1] = test: solubility in G1/S (NP-40 vs SDS abundance) (log2 ratio); higher = more soluble; conditions: cell cycle stage: G1/S
HeLa Kyoto [2] = test: solubility change mitosis vs G1/S (difference of NP-40 vs SDS log2 ratios) (log2 ratio difference); higher = more soluble in mitosis
HeLa Kyoto [3] = test: melting temperature (median over replicates), in situ; higher = more thermally stable
HeLa Kyoto [4] = test: thermal stability score vs G1/S (z-score of summed log2 fold changes over temperatures); higher = more thermally stable than in G1/S
[5] = cell cycle stage: early G1 (4.5 h after nocodazole release)
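Throughout, for melting temperature (median over replicates), in situ: HeLa Kyoto cells synchronized by double thymidine or nocodazole block, proteins quantified by TMT10plex mass spectrometry, three independent biological replicates.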
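Throughout, for solubility change mitosis vs G1/S (difference of NP-40 vs SDS log2 ratios): synchronized HeLa Kyoto cells (double thymidine block for G1/S, nocodazole release for mitosis), protein amounts in NP-40 versus SDS lysates quantified by mass spectrometry, three biological replicates.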
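Throughout, for solubility in G1/S (NP-40 vs SDS abundance): HeLa Kyoto cells arrested at G1/S by double thymidine block, proteins quantified by TMT10plex mass spectrometry in mild NP-40 versus SDS extracts, three biological replicates.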
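Throughout, for thermal stability score vs G1/S (z-score of summed log2 fold changes over temperatures): synchronized HeLa Kyoto cells, proteins quantified by TMT10plex mass spectrometry, three biological replicates, mitosis taken 0.5 h after nocodazole release, G1/S directly after double thymidine block.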

Substance: MTARGLALGLLLLLLCPAQVFSQSCVWYGECGIAYGDKRYNCEYSGPPKPLPKDGYDLVQELCPGFFFGNVSLCCDVRQLQTLKDNLQLPLQFLSRCPSCFYNLLNLFCELTCSPRQSQFLNVTATEDYVDPVTNQTKTNVKELQYYVGQSFANAMYNACRDVEAPSSNDKALGLLCGKDADACNATNWIEYMFNKDNGQAPFTITPVFSDFPVHGMEPMNNATKGCDESVDEVTAPCSCQDCSIVCGPKPQPPPPPAPWTILGLDAMYVIMWITYMAFLLVFFGAFFAVWCYRKRYFVSEYTPIDSNIAFSVNASDKGEASCCDPVSAAFEGCLRRLFTRWGSFCVRNPGCVIFFSLVFITACSSGLVFVRVTTNPVDLWSAPSSQARLEKEYFDQHFGPFFRTEQLIIRAPLTDKHIYQPYPSGADVPFGPPLDIQILHQVLDLQIAIENITASYDNETVTLQDICLAPLSPYNTNCTILSVLNYFQNSHSVLDHKKGDDFFVYADYHTHFLYCVRAPASLNDTSLLHDPCLGTFGGPVFPWLVLGGYDDQNYNNATALVITFPVNNYYNDTEKLQRAQAWEKEFINFVKNYKNPNLTISFTAERSIEDELNRESDSDVFTVVISYAIMFLYISLALGHMKSCRRLLVDSKVSLGIAGILIVLSSVACSLGVFSYIGLPLTLIVIEVIPFLVLAVGVDNIFILVQAYQRDERLQGETLDQQLGRVLGEVAPSMFLSSFSETVAFFLGALSVMPAVHTFSLFAGLAVFIDFLLQITCFVSLLGLDIKRQEKNRLDIFCCVRGAEDGTSVQASESCLFRFFKNSYSPLLLKDWMRPIVIAIFVGVLSFSIAVLNKVDIGLDQSLSMPDDSYMVDYFKSISQYLHAGPPVYFVLEEGHDYTSSKGQNMVCGGMGCNNDSLVQQIFNAAQLDNYTRIGFAPSSWIDDYFDWVKPQSSCCRVDNITDQFCNASVVDPACVRCRPLTPEGKQRPQGGDFMRFLPMFLSDNPNPKCGKGGHAAYSSAVNILLGHGTRVGATYFMTYHTVLQTSADFIDALKKARLIASNVTETMGINGSAYRVFPYSVFYVFYEQYLTIIDDTIFNLGVSLGAIFLVTMVLLGCELWSAVIMCATIAMVLVNMFGVMWLWGISLNAVSLVNLVMSCGISVEFCSHITRAFTVSMKGSRVERAEEALAHMGSSVFSGITLTKFGGIVVLAFAKSQIFQIFYFRMYLAMVLLGATHGLIFLPVLLSYIGPSVNKAKSCATEERYKGTERERLLNF [NPC1]
- solubility in G1/S (log2) (HeLa Kyoto [1]): -0.0136
- solubility change mitosis (log2) (HeLa Kyoto [2]): -0.0644
- melting temperature (HeLa Kyoto [3]; cell cycle stage: G1/S): 58.3 °C
- melting temperature (HeLa Kyoto [3]; cell cycle stage: mitosis): 56.1 °C
- thermal stability score (HeLa Kyoto [4]; [5]): -3.38
- thermal stability score (HeLa Kyoto [4]; cell cycle stage: mitosis): -3.22

Substance: NBAS
- solubility in G1/S (log2) (HeLa Kyoto [1]): -0.197
- solubility change mitosis (log2) (HeLa Kyoto [2]): -0.169
- melting temperature (HeLa Kyoto [3]; cell cycle stage: G1/S): 49.8 °C
- melting temperature (HeLa Kyoto [3]; cell cycle stage: mitosis): 50.1 °C
- thermal stability score (HeLa Kyoto [4]; [5]): 0.362
- thermal stability score (HeLa Kyoto [4]; cell cycle stage: mitosis): 1.51

Substance: MVEPGQDLLLAALSESGISPNDLFDIDGGDAGLATPMPTPSVQQSVPLSALELGLETEAAVPVKQEPETVPTPALLNVRQQPPSTTTFVLNQINHLPPLGSTIVMTKTPPVTTNRQTITLTKFIQTTASTRPSVSAPTVRNAMTSAPSKDQVQLKDLLKNNSLNELMKLKPPANIAQPVATAATDVSNGTVKKESSNKEGARMWINDMKMRSFSPTMKVPVVKEDDEPEEEDEEEMGHAETYAEYMPIKLKIGLRHPDAVVETSSLSSVTPPDVWYKTSISEETIDNGWLSALQLEAITYAAQQHETFLPNGDRAGFLIGDGAGVGKGRTIAGIIYENYLLSRKRALWFSVSNDLKYDAERDLRDIGAKNILVHSLNKFKYGKISSKHNGSVKKGVIFATYSSLIGESQSGGKYKTRLKQLLHWCGDDFDGVIVFDECHKAKNLCPVGSSKPTKTGLAVLELQNKLPKARVVYASATGASEPRNMAYMNRLGIWGEGTPFREFSDFIQAVERRGVGAMEIVAMDMKLRGMYIARQLSFTGVTFKIEEVLLSQSYVKMYNKAVKLWVIARERFQQAADLIDAEQRMKKSMWGQFWSAHQRFFKYLCIASKVKRVVQLAREEIKNGKCVVIGLQSTGEARTLEALEEGGGELNDFVSTAKGVLQSLIEKHFPAPDRKKLYSLLGIDLTAPSNNSSPRDSPCKENKIKKRKGEEITREAKKARKVGGLTGSSSDDSGSESDASDNEESDYESSKNMSSGDDDDFNPFLDESNEDDENDPWLIRKDHKKNKEKKKKKSIDPDSIQSALLASGLGSKRPSFSSTPVISPAPNSTPANSNTNSNSSLITSQDAVERAQQMKKDLLDKLEKLAEDLPPNTLDELIDELGGPENVAEMTGRKGRVVSNDDGSISYESRSELDVPVEILNITEKQRFMDGDKNIAIISEAASSGISLQADRRAKNQRRRVHMTLELPWSADRAIQQFGRTHRSNQVTAPEYVFLISELAGEQRFASIVAKRLESLGALTHGDRRATESRDLSRFNFDNKYGRNALEIVMKSIVNLDSPMVSPPPDYPGEFFKDVRQGLIGVGLINVEDRSGILTLDKDYNNIGKFLNRILGMEVHQQNALFQYFADTLTAVVQNAKKNGRYDMGILDLGSGDEKVRKSDVKKFLTPGYSTSGHVELYTISVERGMSWEEATKIWAELTGPDDGFYLSLQIRNNKKTAILVKEVNPKKKLFLVYRPNTGKQLKLEIYADLKKKYKKVVSDDALMHWLDQYNSSADTCTHAYWRGNCKKASLGLVCEIGLRCRTYYVLCGSVLSVWTKVEGVLASVSGTNVKMQIVRLRTEDGQRIVGLIIPANCVSPLVNLLSTSDQSQQLAVQQKQLWQQHHPQSITNLSNA [SBNO1]
- solubility in G1/S (log2) (HeLa Kyoto [1]): 0.0971
- solubility change mitosis (log2) (HeLa Kyoto [2]): -0.158
- melting temperature (HeLa Kyoto [3]; cell cycle stage: G1/S): 50.9 °C
- melting temperature (HeLa Kyoto [3]; cell cycle stage: mitosis): 51.4 °C
- thermal stability score (HeLa Kyoto [4]; [5]): 1.19
- thermal stability score (HeLa Kyoto [4]; cell cycle stage: mitosis): 2.1

Substance: MVKEQFRETDVAKKISHICFGMKSPEEMRQQAHIQVVSKNLYSQDNQHAPLLYGVLDHRMGTSEKDRPCETCGKNLADCLGHYGYIDLELPCFHVGYFRAVIGILQMICKTCCHIMLSQEEKKQFLDYLKRPGLTYLQKRGLKKKISDKCRKKNICHHCGAFNGTVKKCGLLKIIHEKYKTNKKVVDPIVSNFLQSFETAIEHNKEVEPLLGRAQENLNPLVVLNLFKRIPAEDVPLLLMNPEAGKPSDLILTRLLVPPLCIRPSVVSDLKSGTNEDDLTMKLTEIIFLNDVIKKHRISGAKTQMIMEDWDFLQLQCALYINSELSGIPLNMAPKKWTRGFVQRLKGKQGRFRGNLSGKRVDFSGRTVISPDPNLRIDEVAVPVHVAKILTFPEKVNKANINFLRKLVQNGPEVHPGANFIQQRHTQMKRFLKYGNREKMAQELKYGDIVERHLIDGDVVLFNRQPSLHKLSIMAHLARVKPHRTFRFNECVCTPYNADFDGDEMNLHLPQTEEAKAEALVLMGTKANLVTPRNGEPLIAAIQDFLTGAYLLTLKDTFFDRAKACQIIASILVGKDEKIKVRLPPPTILKPVTLWTGKQIFSVILRPSDDNPVRANLRTKGKQYCGKGEDLCANDSYVTIQNSELMSGSMDKGTLGSGSKNNIFYILLRDWGQNEAADAMSRLARLAPVYLSNRGFSIGIGDVTPGQGLLKAKYELLNAGYKKCDEYIEALNTGKLQQQPGCTAEETLEALILKELSVIRDHAGSACLRELDKSNSPLTMALCGSKGSFINISQMIACVGQQAISGSRVPDGFENRSLPHFEKHSKLPAAKGFVANSFYSGLTPTEFFFHTMAGREGLVDTAVKTAETGYMQRRLVKSLEDLCSQYDLTVRSSTGDIIQFIYGGDGLDPAAMEGKDEPLEFKRVLDNIKAVFPCPSEPALSKNELILTTESIMKKSEFLCCQDSFLQEIKKFIKGVSEKIKKTRDKYGINDNGTTEPRVLYQLDRITPTQVEKFLETCRDKYMRAQMEPGSAVGALCAQSIGEPGTQMTLKTFHFAGVASMNITLGVPRIKEIINASKAISTPIITAQLDKDDDADYARLVKGRIEKTLLGEISEYIEEVFLPDDCFILVKLSLERIRLLRLEVNAETVRYSICTSKLRVKPGDVAVHGEAVVCVTPRENSKSSMYYVLQFLKEDLPKVVVQGIPEVSRAVIHIDEQSGKEKYKLLVEGDNLRAVMATHGVKGTRTTSNNTYEVEKTLGIEAARTTIINEIQYTMVNHGMSIDRRHVMLLSDLMTYKGEVLGITRFGLAKMKESVLMLASFEKTADHLFDAAYFGQKDSVCGVSECIIMGIPMNIGTGLFKLLHKADRDPNPPKRPLIFDTNEFHIPLVT [POLR3A]
- solubility in G1/S (log2) (HeLa Kyoto [1]): -0.268
- solubility change mitosis (log2) (HeLa Kyoto [2]): -0.101
- melting temperature (HeLa Kyoto [3]; cell cycle stage: G1/S): 49.1 °C
- melting temperature (HeLa Kyoto [3]; cell cycle stage: mitosis): 49.9 °C
- thermal stability score (HeLa Kyoto [4]; [5]): 0.905
- thermal stability score (HeLa Kyoto [4]; cell cycle stage: mitosis): 2.38
